Measurements taken from PMC12809912, “Structural and epitope characterization of anti-DEFA5 monoclonal antibodies clones 1A8 and 4F5 for inflammatory bowel disease subtype diagnostics” (International journal of biological macromolecules, 2025).
Each block holds one binder with its values, some of them ahead of it. Ends that are not written are not given here. * marks the point of attachment. Biotin = O=C1N[C@H]2[C@H](CS[C@H]2CCCCC(=O)*)N1

Columns and labels:
Conditions in all cases: both partners purified
[1] = biological target: T1, peptide variant of … with the N-terminal Ala61 deleted (Homo sapiens, UniProt Q01523); experiment: ELISA; indirect peptide ELISA: peptide coated at 5 ug/mL overnight at 4 C, antibody in PBST with 1 % BSA 2 h at 37 C, HRP goat anti-mouse IgG, OD 450 nm
T1 construct: also called N-terminal deletion mutant; source: synthetic peptide (GenScript, >95 % purity)
T1 chain: RATCYCRTGRCATR

[2] = biological target: T2, peptide No. 57 of the overlapping library, DEFA5 amino acids 61-75 (ARATCYCRTGRCATR) (Homo sapiens); experiment: as above
T2 construct: human DEFA5 amino acids 61-75; source: synthetic peptide (GenScript, >95 % purity)
T2 chain: ARATCYCRTGRCATR

[3] = biological target: T3, biotinylated DEFA5 epitope peptide Biotin-RATCYCRTGRCAT (Homo sapiens, cysteine pairing not given here); experiment: SPR; Biacore 8K, Biotin-RATCYCRTGRCAT immobilised on SA chip (~95 RU), antibodies injected 7.81-125 nM, 25 C, HBS-EP+, 30 uL/min, global fit to a 1:1 binding model
T3 construct: human DEFA5 residues 62-74; source: synthetic peptide
T3 chain: Biotin-RATCYCRTGRCAT

- binding result [1]: binds
- binding result [2]: binds
- Kd [3]: 13.5 nM
- stoichiometry N [3]: 1
B1: mouse monoclonal antibody clone 1A8 (anti-DEFA5) (antibody, V domains shown)
VH: QVQLQQSGAELVRPGASVKMSCKALGYTFFDYEMHWMKQTPVYGLEWIGAIHPGSGDTAYNQKFKGKATLTADKSSNTAYMELSSLTSEDSAVYYCTREGTVVAPFDYWGQGTTLTVSS
VL: DVLMTQTPLSLPVSLGDQASISCRSSQSIVHSNGNTYLEWYLQKPGQSPKLLINKVSNRFSGVPDRFSGSGSGTDFTLKISRVEAEDLGVYYCFQGSYVPYTFGGGTKLEIK
notes: the print has a blank between NYKNT and PIMDTDG; Whole IgG, intact mass ~148.73 kDa; also called mAb 1A8; source: mouse hybridoma clone, purified monoclonal antibody

- binding result [1]: binds
- binding result [2]: binds
- Kd [3]: 15 nM
- stoichiometry N [3]: 1
B2: mouse monoclonal antibody clone 4F5 (anti-DEFA5) (antibody, V domains shown)
VH: B1 VH
VL: B1 VL
notes: the print has a blank between NYKNT and PIMDTDG; Whole IgG, intact mass ~148.65 kDa; also called mAb 4F5; source: mouse hybridoma clone, purified monoclonal antibody
